Target: human fibrinogen (human) (UniProt P02671)
Experiment: ELISA

| Substance | EC50 [µM] |
| --- | --- |
| recombinant gain-of-function (GOF) A1(R1450E)A2A3 mutant of VWF (domain or fragment) | 0.063 |
| recombinant wild-type A1A2A3 (WT) domains protein of VWF (domain or fragment) | 0.087 |
